# ± gives the uncertainty stated by the source.
# B1: Glucocorticoid receptor, residues 419 to 494; numbered along this chain, P04150 (parent)
# chain: KLCLVCSDEASGCHYGVLTCGSCKVFFKRAVEGQHNYLCAGRNDCIIDKIRRKNCPACRYRKCLQAGMNLEARKTK
# Variants of: B1
# Test: abundance fitness (aPCA) (normalised: wild type 0, dead -1); higher = more abundant; growth selection in yeast, the domain comes from the species named
# Details: Homo sapiens
row,Variant,abundance fitness
1,KLCLVCSKEASGCHYGVLTCGSCKVFFKRAVEGQHNYLCAGRNDCIIDKIRRKNCPACRYRKCLQAGMNLEARKTK [D8K],-0.27 ± 0.069
2,KLCLVCSCEASGCHYGVLTCGSCKVFFKRAVEGQHNYLCAGRNDCIIDKIRRKNCPACRYRKCLQAGMNLEARKTK [D8C],-0.105 ± 0.072
3,KLCLVCSYEASGCHYGVLTCGSCKVFFKRAVEGQHNYLCAGRNDCIIDKIRRKNCPACRYRKCLQAGMNLEARKTK [D8Y],-0.409 ± 0.084
4,KLCLVCSEEASGCHYGVLTCGSCKVFFKRAVEGQHNYLCAGRNDCIIDKIRRKNCPACRYRKCLQAGMNLEARKTK [D8E],-0.033 ± 0.048
5,KLCLVCSSEASGCHYGVLTCGSCKVFFKRAVEGQHNYLCAGRNDCIIDKIRRKNCPACRYRKCLQAGMNLEARKTK [D8S],-0.034 ± 0.038
6,KLCLVCSNEASGCHYGVLTCGSCKVFFKRAVEGQHNYLCAGRNDCIIDKIRRKNCPACRYRKCLQAGMNLEARKTK [D8N],-0.147 ± 0.089
7,KLCLVCSLEASGCHYGVLTCGSCKVFFKRAVEGQHNYLCAGRNDCIIDKIRRKNCPACRYRKCLQAGMNLEARKTK [D8L],-0.646 ± 0.071
8,KLCLVCSHEASGCHYGVLTCGSCKVFFKRAVEGQHNYLCAGRNDCIIDKIRRKNCPACRYRKCLQAGMNLEARKTK [D8H],-0.203 ± 0.094
9,KLCLVCSIEASGCHYGVLTCGSCKVFFKRAVEGQHNYLCAGRNDCIIDKIRRKNCPACRYRKCLQAGMNLEARKTK [D8I],-0.68 ± 0.2
10,KLCLVCSQEASGCHYGVLTCGSCKVFFKRAVEGQHNYLCAGRNDCIIDKIRRKNCPACRYRKCLQAGMNLEARKTK [D8Q],-0.035 ± 0.051
11,KLCLVCSTEASGCHYGVLTCGSCKVFFKRAVEGQHNYLCAGRNDCIIDKIRRKNCPACRYRKCLQAGMNLEARKTK [D8T],-0.195 ± 0.056
12,KLCLVCSAEASGCHYGVLTCGSCKVFFKRAVEGQHNYLCAGRNDCIIDKIRRKNCPACRYRKCLQAGMNLEARKTK [D8A],0.037 ± 0.039
13,KLCLVCSREASGCHYGVLTCGSCKVFFKRAVEGQHNYLCAGRNDCIIDKIRRKNCPACRYRKCLQAGMNLEARKTK [D8R],-0.237 ± 0.036
14,KLCLVCSVEASGCHYGVLTCGSCKVFFKRAVEGQHNYLCAGRNDCIIDKIRRKNCPACRYRKCLQAGMNLEARKTK [D8V],-0.219 ± 0.039
15,KLCLVCSMEASGCHYGVLTCGSCKVFFKRAVEGQHNYLCAGRNDCIIDKIRRKNCPACRYRKCLQAGMNLEARKTK [D8M],-0.216 ± 0.067
16,KLCLVCSWEASGCHYGVLTCGSCKVFFKRAVEGQHNYLCAGRNDCIIDKIRRKNCPACRYRKCLQAGMNLEARKTK [D8W],-0.521 ± 0.064
17,KLCLVCSDTASGCHYGVLTCGSCKVFFKRAVEGQHNYLCAGRNDCIIDKIRRKNCPACRYRKCLQAGMNLEARKTK [E9T],0.089 ± 0.045
18,KLCLVCSDVASGCHYGVLTCGSCKVFFKRAVEGQHNYLCAGRNDCIIDKIRRKNCPACRYRKCLQAGMNLEARKTK [E9V],0.031 ± 0.035
19,KLCLVCSDCASGCHYGVLTCGSCKVFFKRAVEGQHNYLCAGRNDCIIDKIRRKNCPACRYRKCLQAGMNLEARKTK [E9C],0.083 ± 0.052
20,KLCLVCSDHASGCHYGVLTCGSCKVFFKRAVEGQHNYLCAGRNDCIIDKIRRKNCPACRYRKCLQAGMNLEARKTK [E9H],-0.052 ± 0.075
21,KLCLVCSDLASGCHYGVLTCGSCKVFFKRAVEGQHNYLCAGRNDCIIDKIRRKNCPACRYRKCLQAGMNLEARKTK [E9L],0.036 ± 0.033
22,KLCLVCSDIASGCHYGVLTCGSCKVFFKRAVEGQHNYLCAGRNDCIIDKIRRKNCPACRYRKCLQAGMNLEARKTK [E9I],-0.038 ± 0.065
23,KLCLVCSDDASGCHYGVLTCGSCKVFFKRAVEGQHNYLCAGRNDCIIDKIRRKNCPACRYRKCLQAGMNLEARKTK [E9D],-0.015 ± 0.077
24,KLCLVCSDYASGCHYGVLTCGSCKVFFKRAVEGQHNYLCAGRNDCIIDKIRRKNCPACRYRKCLQAGMNLEARKTK [E9Y],-0.105 ± 0.072

row,Variant,abundance fitness
1,KLCLVCSDKASGCHYGVLTCGSCKVFFKRAVEGQHNYLCAGRNDCIIDKIRRKNCPACRYRKCLQAGMNLEARKTK [E9K],0.105 ± 0.057
2,KLCLVCSDFASGCHYGVLTCGSCKVFFKRAVEGQHNYLCAGRNDCIIDKIRRKNCPACRYRKCLQAGMNLEARKTK [E9F],-0.115 ± 0.071
3,KLCLVCSDPASGCHYGVLTCGSCKVFFKRAVEGQHNYLCAGRNDCIIDKIRRKNCPACRYRKCLQAGMNLEARKTK [E9P],0.074 ± 0.047
4,KLCLVCSDRASGCHYGVLTCGSCKVFFKRAVEGQHNYLCAGRNDCIIDKIRRKNCPACRYRKCLQAGMNLEARKTK [E9R],0.04 ± 0.032
5,KLCLVCSDNASGCHYGVLTCGSCKVFFKRAVEGQHNYLCAGRNDCIIDKIRRKNCPACRYRKCLQAGMNLEARKTK [E9N],0.12 ± 0.063
6,KLCLVCSDMASGCHYGVLTCGSCKVFFKRAVEGQHNYLCAGRNDCIIDKIRRKNCPACRYRKCLQAGMNLEARKTK [E9M],0.042 ± 0.042
7,KLCLVCSDWASGCHYGVLTCGSCKVFFKRAVEGQHNYLCAGRNDCIIDKIRRKNCPACRYRKCLQAGMNLEARKTK [E9W],0.062 ± 0.041
8,KLCLVCSDSASGCHYGVLTCGSCKVFFKRAVEGQHNYLCAGRNDCIIDKIRRKNCPACRYRKCLQAGMNLEARKTK [E9S],0.032 ± 0.036
9,KLCLVCSDQASGCHYGVLTCGSCKVFFKRAVEGQHNYLCAGRNDCIIDKIRRKNCPACRYRKCLQAGMNLEARKTK [E9Q],-0.017 ± 0.056
10,KLCLVCKDEASGCHYGVLTCGSCKVFFKRAVEGQHNYLCAGRNDCIIDKIRRKNCPACRYRKCLQAGMNLEARKTK [S7K],0.032 ± 0.046
11,KLCLVCYDEASGCHYGVLTCGSCKVFFKRAVEGQHNYLCAGRNDCIIDKIRRKNCPACRYRKCLQAGMNLEARKTK [S7Y],-0.109 ± 0.053
12,KLCLVCHDEASGCHYGVLTCGSCKVFFKRAVEGQHNYLCAGRNDCIIDKIRRKNCPACRYRKCLQAGMNLEARKTK [S7H],0.021 ± 0.09
13,KLCLVCRDEASGCHYGVLTCGSCKVFFKRAVEGQHNYLCAGRNDCIIDKIRRKNCPACRYRKCLQAGMNLEARKTK [S7R],-0.048 ± 0.031
14,KLCLVCADEASGCHYGVLTCGSCKVFFKRAVEGQHNYLCAGRNDCIIDKIRRKNCPACRYRKCLQAGMNLEARKTK [S7A],0.098 ± 0.038
15,KLCLVCNDEASGCHYGVLTCGSCKVFFKRAVEGQHNYLCAGRNDCIIDKIRRKNCPACRYRKCLQAGMNLEARKTK [S7N],-0.111 ± 0.065
16,KLCLVCEDEASGCHYGVLTCGSCKVFFKRAVEGQHNYLCAGRNDCIIDKIRRKNCPACRYRKCLQAGMNLEARKTK [S7E],0.012 ± 0.042
17,KLCLVCQDEASGCHYGVLTCGSCKVFFKRAVEGQHNYLCAGRNDCIIDKIRRKNCPACRYRKCLQAGMNLEARKTK [S7Q],0.029 ± 0.046
18,KLCLVCWDEASGCHYGVLTCGSCKVFFKRAVEGQHNYLCAGRNDCIIDKIRRKNCPACRYRKCLQAGMNLEARKTK [S7W],-0.115 ± 0.043
19,KLCLVCTDEASGCHYGVLTCGSCKVFFKRAVEGQHNYLCAGRNDCIIDKIRRKNCPACRYRKCLQAGMNLEARKTK [S7T],-0.02 ± 0.051
20,KLCLVCLDEASGCHYGVLTCGSCKVFFKRAVEGQHNYLCAGRNDCIIDKIRRKNCPACRYRKCLQAGMNLEARKTK [S7L],-0.017 ± 0.037
21,KLCLVCIDEASGCHYGVLTCGSCKVFFKRAVEGQHNYLCAGRNDCIIDKIRRKNCPACRYRKCLQAGMNLEARKTK [S7I],-0.725 ± 0.16
22,KLCLVCDDEASGCHYGVLTCGSCKVFFKRAVEGQHNYLCAGRNDCIIDKIRRKNCPACRYRKCLQAGMNLEARKTK [S7D],0 ± 0.053
23,KLCLVCCDEASGCHYGVLTCGSCKVFFKRAVEGQHNYLCAGRNDCIIDKIRRKNCPACRYRKCLQAGMNLEARKTK [S7C],-0.046 ± 0.072
24,KLCLVCMDEASGCHYGVLTCGSCKVFFKRAVEGQHNYLCAGRNDCIIDKIRRKNCPACRYRKCLQAGMNLEARKTK [S7M],-0.06 ± 0.051

row,Variant,abundance fitness
1,KLCLVCFDEASGCHYGVLTCGSCKVFFKRAVEGQHNYLCAGRNDCIIDKIRRKNCPACRYRKCLQAGMNLEARKTK [S7F],-0.045 ± 0.076
2,KLCLVCGDEASGCHYGVLTCGSCKVFFKRAVEGQHNYLCAGRNDCIIDKIRRKNCPACRYRKCLQAGMNLEARKTK [S7G],0.012 ± 0.034
3,KLCLVCVDEASGCHYGVLTCGSCKVFFKRAVEGQHNYLCAGRNDCIIDKIRRKNCPACRYRKCLQAGMNLEARKTK [S7V],-0.374 ± 0.046
4,KLCLVCPDEASGCHYGVLTCGSCKVFFKRAVEGQHNYLCAGRNDCIIDKIRRKNCPACRYRKCLQAGMNLEARKTK [S7P],-0.757 ± 0.11
5,KLCLVCSDEGSGCHYGVLTCGSCKVFFKRAVEGQHNYLCAGRNDCIIDKIRRKNCPACRYRKCLQAGMNLEARKTK [A10G],-0.122 ± 0.042
6,KLCLVCSDEISGCHYGVLTCGSCKVFFKRAVEGQHNYLCAGRNDCIIDKIRRKNCPACRYRKCLQAGMNLEARKTK [A10I],-0.15 ± 0.075
7,KLCLVCSDEDSGCHYGVLTCGSCKVFFKRAVEGQHNYLCAGRNDCIIDKIRRKNCPACRYRKCLQAGMNLEARKTK [A10D],-0.251 ± 0.12
8,KLCLVCSDEFSGCHYGVLTCGSCKVFFKRAVEGQHNYLCAGRNDCIIDKIRRKNCPACRYRKCLQAGMNLEARKTK [A10F],-0.362 ± 0.075
9,KLCLVCSDEKSGCHYGVLTCGSCKVFFKRAVEGQHNYLCAGRNDCIIDKIRRKNCPACRYRKCLQAGMNLEARKTK [A10K],-0.408 ± 0.092
10,KLCLVCSDEESGCHYGVLTCGSCKVFFKRAVEGQHNYLCAGRNDCIIDKIRRKNCPACRYRKCLQAGMNLEARKTK [A10E],-0.287 ± 0.053
11,KLCLVCSDECSGCHYGVLTCGSCKVFFKRAVEGQHNYLCAGRNDCIIDKIRRKNCPACRYRKCLQAGMNLEARKTK [A10C],-0.147 ± 0.056
12,KLCLVCSDEHSGCHYGVLTCGSCKVFFKRAVEGQHNYLCAGRNDCIIDKIRRKNCPACRYRKCLQAGMNLEARKTK [A10H],-0.235 ± 0.072
13,KLCLVCSDENSGCHYGVLTCGSCKVFFKRAVEGQHNYLCAGRNDCIIDKIRRKNCPACRYRKCLQAGMNLEARKTK [A10N],-0.274 ± 0.07
14,KLCLVCSDELSGCHYGVLTCGSCKVFFKRAVEGQHNYLCAGRNDCIIDKIRRKNCPACRYRKCLQAGMNLEARKTK [A10L],-0.066 ± 0.036
15,KLCLVSSDEASGCHYGVLTCGSCKVFFKRAVEGQHNYLCAGRNDCIIDKIRRKNCPACRYRKCLQAGMNLEARKTK [C6S],-1.22 ± 0.25
16,KLCLVQSDEASGCHYGVLTCGSCKVFFKRAVEGQHNYLCAGRNDCIIDKIRRKNCPACRYRKCLQAGMNLEARKTK [C6Q],-0.805 ± 0.16
17,KLCLVYSDEASGCHYGVLTCGSCKVFFKRAVEGQHNYLCAGRNDCIIDKIRRKNCPACRYRKCLQAGMNLEARKTK [C6Y],-0.653 ± 0.13
18,KLCLVLSDEASGCHYGVLTCGSCKVFFKRAVEGQHNYLCAGRNDCIIDKIRRKNCPACRYRKCLQAGMNLEARKTK [C6L],-0.992 ± 0.12
19,KLCLVKSDEASGCHYGVLTCGSCKVFFKRAVEGQHNYLCAGRNDCIIDKIRRKNCPACRYRKCLQAGMNLEARKTK [C6K],-1.01 ± 0.22
20,KLCLVVSDEASGCHYGVLTCGSCKVFFKRAVEGQHNYLCAGRNDCIIDKIRRKNCPACRYRKCLQAGMNLEARKTK [C6V],-1.06 ± 0.15
21,KLCLVRSDEASGCHYGVLTCGSCKVFFKRAVEGQHNYLCAGRNDCIIDKIRRKNCPACRYRKCLQAGMNLEARKTK [C6R],-0.852 ± 0.085
22,KLCLVWSDEASGCHYGVLTCGSCKVFFKRAVEGQHNYLCAGRNDCIIDKIRRKNCPACRYRKCLQAGMNLEARKTK [C6W],-1.03 ± 0.18
23,KLCLVPSDEASGCHYGVLTCGSCKVFFKRAVEGQHNYLCAGRNDCIIDKIRRKNCPACRYRKCLQAGMNLEARKTK [C6P],-0.931 ± 0.17
24,KLCLVTSDEASGCHYGVLTCGSCKVFFKRAVEGQHNYLCAGRNDCIIDKIRRKNCPACRYRKCLQAGMNLEARKTK [C6T],-1.14 ± 0.24
